Measurements as given in patent publication US20200002710A1, “SYSTEMS AND METHODS FOR CONTROL OF GENE EXPRESSION” (TRUSTEES OF BOSTON UNIVERSITY, published 2020).

How the values were obtained:
[1] = system: 43-8 low affinity synTF + 3x syntrophin PDZ clamp (artificial); assay: FP; settings: nH 2.55; synTF titration with 3-PDZ clamp
[2] = molecular target: T1, 42-10 (ZF2) low affinity synTF (artificial, R-to-A backbone (low affinity allele, already in ref)); assay: FP; fluorescence anisotropy competition; Zn2+, 25 C; settings: tags: N-terminal MBP; C-terminal GS linker + syntrophin ligand S5 (VKESLV)
T1 chain: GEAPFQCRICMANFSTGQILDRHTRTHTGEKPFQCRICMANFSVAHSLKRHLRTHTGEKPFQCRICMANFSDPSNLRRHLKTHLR
Method: (§1) Sequences for both sets of DBM affinity variants are listed on the right. Residues mutated from the WT sequence are indicated by bold type.
(§2) All assays were conducted in 20 mM Tris, pH 7.5, 100 mM […], 50 μM ZnCl2 buffer at 25° C. Proteins, probes, and competitor oligos were added to a final volume of 300 μL. Probes were used at 10 nM in all experiments. For complex assembly experiments (FIG. 1C), indicated concentrations of MBP-ZF₄₃₋₈ harboring a VSKESLV* ligand (SEQ ID NO: 120) (see e.g., FIG. 5A-FIG. 5B, FIG. 7A-FIG. 7B) were titrated against 5 μM concentrations of clamp. Mixtures were allowed to equilibrate at 25° C. for 10 min in Costar black 96-well plates prior to reading. Fluorescence anisotropy (FA) measurements were made at 494 nm using a SpectraMax M5 (Molecular Devices) fluorescence plate reader. For all measurements, anisotropy (r) was calculated using the following equation, wherein I_{∥} and I_{⊥} are parallel and perpendicular fluorescence, respectively:
(§3) TF-DBM binding constants were measured in vitro by fluorescence anisotropy (FA). Recombinant proteins were purified and DBM oligos prepared as described herein. […] Affinities for the interaction were measured as a function of the increase in fluorescence anisotropy resulting from binding of the fusion to a fluorescently labeled (FITC) oligo probe (data not shown). Oligo probe binding to ZF affinity variants was measured. MBP-ZF was titrated against 10 nM oligo probe. […] Kd values were extracted by fitting data to a quadratic binding equation (data not shown). Competition binding experiments were performed to measure binding constants for DBM affinity variants.

[3] = molecular target: T2, MBP-syn. (MBP fusion of the syntrophin PDZ domain) (UniProt Q28626 83-177); assay: thermodynamic model fit; model-fitted
T2 chain: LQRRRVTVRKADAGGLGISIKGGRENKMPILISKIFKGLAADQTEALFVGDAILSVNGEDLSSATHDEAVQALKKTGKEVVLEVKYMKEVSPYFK

[4] = molecular target: T3, MBP-erb. (MBP fusion of the erbin PDZ domain) (Mus musculus (Mouse), UniProt Q80TH2 1304-1387, limits assumed); assay: fluorescence anisotropy competition; 43-8 synTF-ligand fusion titrated against MBP-erbin PDZ and FITC peptide probe
T3 construct: also called MBP-PDZ; pCB425
T3 chain: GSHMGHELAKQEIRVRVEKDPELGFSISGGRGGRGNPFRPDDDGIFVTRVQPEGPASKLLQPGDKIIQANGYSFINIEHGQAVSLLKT
Method: (§4) Probe concentration was assessed by measuring Abs490. Competitor peptides were purified as MBP-ZF43-8 fusions (see e.g., FIG. 5A-FIG. 5B, FIG. 7A-FIG. 7B).
as §2
(§5) PDZ-ligand binding constants were measured in vitro by fluorescence anisotropy. Recombinant proteins were purified as described herein. […] Peptide probe binding to PDZ domain was measured. […] Kₐ values were extracted by fitting data to a quadratic binding equation (data not shown). Competition binding experiments were conducted to measure binding constants for ligand affinity variants. […] accompanying displacement of the probe by the competitor was measured, and competitor ligand Kd values were extracted by fitting data (converted to fraction probe bound) to a cubic equation describing competitive binding (see e.g., FIG. 7A).

[5] = molecular target: T4, MBP-syn. (MBP fusion of the syntrophin PDZ domain) (Oryctolagus cuniculus (Rabbit), UniProt Q28626 83-177); assay: fluorescence anisotropy competition; 43-8 synTF-ligand fusion titrated against MBP-syntrophin PDZ and FITC-VKESLV probe
T4 construct: Used as an MBP fusion in the PDZ-ligand anisotropy assays; also called MBP-PDZ; pCB378
T4 sequence: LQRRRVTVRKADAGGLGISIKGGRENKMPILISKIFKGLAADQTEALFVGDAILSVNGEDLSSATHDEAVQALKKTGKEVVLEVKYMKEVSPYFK
Method: as §4, §2, §5

[6] = molecular target: T4, MBP-syn. (MBP fusion of the syntrophin …); assay: fluorescence anisotropy competition (nb indicates no binding)
Method: as §4, §2, §5

[7] = molecular target: T3, MBP-erb. (MBP fusion of the erbin PDZ …); assay: as above
Method: as §4, §2, §5

[8] = molecular target: T2, MBP-syn. (MBP fusion of the syntrophin …); assay: fluorescence anisotropy competition; experimentally-measured
[9] = molecular target: T5, 43-8 (ZF1) high affinity synTF (artificial); assay: FP; fluorescence anisotropy competition; Zn2+, 25 C; settings: tags: N-terminal MBP; C-terminal GS linker + syntrophin ligand S5 (VKESLV)
T5 chain: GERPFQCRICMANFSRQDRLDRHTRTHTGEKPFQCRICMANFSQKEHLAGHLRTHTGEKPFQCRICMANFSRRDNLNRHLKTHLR
Method: as §1, §2, §3

[10] = molecular target: T6, 43-8 (ZF1) low affinity synTF (artificial, R-to-A backbone (low affinity allele, already in ref)); assay: as above; settings: tags: N-terminal MBP; C-terminal GS linker + syntrophin ligand S5 (VKESLV)
T6 chain: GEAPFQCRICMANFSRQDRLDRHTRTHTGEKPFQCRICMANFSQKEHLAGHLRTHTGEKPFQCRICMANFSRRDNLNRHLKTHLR
Method: as §1, §2, §3

[11] = molecular target: T6, 43-8 (ZF1) low affinity synTF; assay: FP; no clamp; nH 1.07; settings: tags: N-terminal MBP; C-terminal GS linker + syntrophin ligand S5 (VKESLV); label: fluorescein on bottom-strand thymidine
Method: as §2, with “respectively: […]” for “respectively:”

[12] = molecular target: T7, 42-10 (ZF2) high affinity synTF (artificial); assay: FP; fluorescence anisotropy competition; 20 mM Tris pH 7.5, 100 mM NaCl, 50 uM ZnCl2, 25 C; settings: tags: N-terminal MBP; C-terminal GS linker + syntrophin ligand S5 (VKESLV)
T7 chain: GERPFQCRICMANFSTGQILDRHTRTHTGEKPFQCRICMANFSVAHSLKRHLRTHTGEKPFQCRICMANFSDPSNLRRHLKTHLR
Method: as §1, §2
TF-DBM binding constants were measured in vitro by fluorescence anisotropy (FA). Recombinant proteins were purified and DBM oligos prepared as described herein. […] Affinities for the interaction were measured as a function of the increase in fluorescence anisotropy resulting from binding of the fusion to a fluorescently labeled (FITC) oligo probe (data not shown). Oligo probe binding to ZF affinity variants was measured. […]

Question: How did the EC50 [1] turn out when “GAATTCGTCCTCACTCTTCGGTCCTCACTCTTCGGTCCTCACTCTGGATCC (double strand) [43-8 nc=3 probe]” was run?
Answer: 5.1 nM

B1: 42-10 DBM7 (dsDNA)
DNA 1: AGACTCTGCTC
DNA 2: GAGCAGAGTCT
Question: B1 was tested. Which Kd [2] did it give?
Answer: 415 nM

B2: MBP-43-8(low)-syn. lig. (S4) (other, not shown: large carriers)
chain: GEAPFQCRICMANFSRQDRLDRHTRTHTGEKPFQCRICMANFSQKEHLAGHLRTHTGEKPFQCRICMANFSRRDNLNRHLKTHLRGSGSGIRETIV
notes: also called IRETIV; pCB384
Question: What does the source list for B2?
Answer: Kd [3]: 400 nM; Kd [4]: 3460 nM; Kd [5]: 880 nM

B3: 43-8 synTF with appended erbin ligand E2 (WLKTWV) (other, not shown: large carriers)
chain: GEAPFQCRICMANFSRQDRLDRHTRTHTGEKPFQCRICMANFSQKEHLAGHLRTHTGEKPFQCRICMANFSRRDNLNRHLKTHLRGSGSGWLKTWV
Question: What does the source list for B3?
Answer: binding result [6]: no binding; Kd [4]: 330 nM

B4: 43-8 synTF with appended erbin ligand E1 (WLVTWV) (other, not shown: large carriers)
chain: GEAPFQCRICMANFSRQDRLDRHTRTHTGEKPFQCRICMANFSQKEHLAGHLRTHTGEKPFQCRICMANFSRRDNLNRHLKTHLRGSGSGWLVTWV
Question: Which results are given for B4?
Answer: binding result [6]: no binding; Kd [4]: 100 nM

B5: MBP-43-8(low)-syn. lig. (S2) (other, not shown: large carriers)
chain: GEAPFQCRICMANFSRQDRLDRHTRTHTGEKPFQCRICMANFSQKEHLAGHLRTHTGEKPFQCRICMANFSRRDNLNRHLKTHLRGSGSGIRETIL
notes: also called IRETIL; pCB381
Question: Does B5 bind [7]?
Answer: no binding

Question: What about the Kd [5] of the same molecule?
Answer: 180 nM

B6: MBP-43-8(low)-syn. lig. (S1) (other, not shown: large carriers)
chain: GEAPFQCRICMANFSRQDRLDRHTRTHTGEKPFQCRICMANFSQKEHLAGHLRTHTGEKPFQCRICMANFSRRDNLNRHLKTHLRGSGSGIRETII
notes: also called IRETII; pCB380
Question: Does B6 bind [7]?
Answer: no binding

Question: What about the Kd [5] of the same molecule?
Answer: 62 nM

B7: MBP-43-8(low)-syn. lig. (S7) (other, not shown: large carriers)
chain: GEAPFQCRICMANFSRQDRLDRHTRTHTGEKPFQCRICMANFSQKEHLAGHLRTHTGEKPFQCRICMANFSRRDNLNRHLKTHLRGSGSGHLETFF
notes: also called HLETFF; pCB387
Question: What does the source list for B7?
Answer: binding result [7]: no binding; Kd [5]: 43200 nM

B8: 43-8 synTF with appended erbin ligand E3 (PVDSWV) (other, not shown: large carriers)
chain: GEAPFQCRICMANFSRQDRLDRHTRTHTGEKPFQCRICMANFSQKEHLAGHLRTHTGEKPFQCRICMANFSRRDNLNRHLKTHLRGSGSGPVDSWV
Question: For B8, which Kd [4] is on record?
Answer: 420 nM

Question: And the Kd [5]?
Answer: 1570 nM

B9: MBP-43-8(low)-syn. lig. (S6) (other, not shown: large carriers)
chain: GEAPFQCRICMANFSRQDRLDRHTRTHTGEKPFQCRICMANFSQKEHLAGHLRTHTGEKPFQCRICMANFSRRDNLNRHLKTHLRGSGSGVKEALV
notes: also called VKEALV; pCB386
Question: Does B9 bind [7]?
Answer: no binding

Question: And the Kd [8]?
Answer: 20300 nM

Question: What about the Kd [5] of the same molecule?
Answer: 27300 nM

B10: MBP-43-8(low)-syn. lig. (S3) (other, not shown: large carriers)
chain: GEAPFQCRICMANFSRQDRLDRHTRTHTGEKPFQCRICMANFSQKEHLAGHLRTHTGEKPFQCRICMANFSRRDNLNRHLKTHLRGSGSGIRWTIV
notes: also called IRWTIV; pCB382
Question: For B10, which Kd [4] is on record?
Answer: 1730 nM

Question: And the Kd [5]?
Answer: 490 nM

B11: MBP-43-8(low)-syn. lig. (S5) (other, not shown: large carriers)
chain: GEAPFQCRICMANFSRQDRLDRHTRTHTGEKPFQCRICMANFSQKEHLAGHLRTHTGEKPFQCRICMANFSRRDNLNRHLKTHLRGSGSGVKESLV
notes: also called VKESLV; pCB385
Question: Which Kd [3] does the source give for B11 here?
Answer: 2050 nM

Question: And the Kd [4]?
Answer: 5710 nM

Question: What about the Kd [5] of the same molecule?
Answer: 1970 nM

B12: MBP-43-8(low)-syn. lig.(no bind) (other, not shown: large carriers; small tags and cut ends)
chain: GEAPFQCRICMANFSRQDRLDRHTRTHTGEKPFQCRICMANFSQKEHLAGHLRTHTGEKPFQCRICMANFSRRDNLNRHLKTHLRGSGSGVKEAAA
notes: also called VKEAAA; nb
Question: Does B12 bind [7]?
Answer: no binding

B13: 43-8 DBM3 (dsDNA)
DNA 1: ATAGTGAGGAC
DNA 2: GTCCTCACTAT
Question: How did the Kd [9] turn out when B13 was run?
Answer: 42 nM

Question: What about the Kd [10] of the same molecule?
Answer: 224 nM

B14: 42-10 DBM5 (dsDNA)
DNA 1: AGACGCTACTC
DNA 2: GAGTAGCGTCT
Question: With B14 as the molecule, how does the Kd [2] read?
Answer: 95 nM

B15: 42-10 DBM3 (dsDNA)
DNA 1: AGACGGTGCTC
DNA 2: GAGCACCGTCT
Question: Which Kd [2] does the source give for B15 here?
Answer: 32 nM

B16: 42-10 DBM6 (dsDNA)
DNA 1: AGACGCTGCTA
DNA 2: TAGCAGCGTCT
Question: B16 was tested. Which Kd [2] did it give?
Answer: 218 nM

B17: 43-8 nc=2 probe (dsDNA)
DNA 1: GAATTCGTCCTCACTCTTCGGTCCTCACTCTGGATCC
DNA 2: GGATCCAGAGTGAGGACCGAAGAGTGAGGACGAATTC
Question: Which EC50 [11] does the source give for B17 here?
Answer: 210 nM

B18: 42-10 DBM4 (dsDNA)
DNA 1: ACACGCTGCTC
DNA 2: GAGCAGCGTGT
Question: With B18 as the molecule, how does the Kd [2] read?
Answer: 67 nM

B19: 43-8 DBM2 (dsDNA)
DNA 1: ACAGTGAGGAC
DNA 2: GTCCTCACTGT
Question: Which results are given for B19?
Answer: Kd [9]: 30 nM; Kd [10]: 143 nM

B20: 42-10 DBM2 (dsDNA)
DNA 1: TGACGCTGCTT
DNA 2: AAGCAGCGTCA
Question: Which Kd [12] does the source give for B20 here?
Answer: 0.94 nM

Question: What about the Kd [2] of the same molecule?
Answer: 5.2 nM
